Measured values as given in patent US20250289897A1, “LEPTIN RECEPTOR AGONISTIC ANTIBODY AS MONO OR COMBO THERAPIES TO TREAT OBESITY” (ELI LILLY AND COMPANY, priority 2024, published 2025).
“And” between values parts separate entries of the source, which are not always exact repeats. Equal entries are not always repeated.

Assays:
FcRn = target: T1, FcRn (Homo sapiens, UniProt P55899); assay: Relative FcRn binding by FcRn-HPLC; conditions: FcRn affinity column; for Retention Time: pH gradient 5.5 to 8.8 over 90 minutes, main peak; for Peak Width: peak width at 50% peak height
T1 construct: purchased Roche 09430857001
T1 sequence (P55899 24-297 limits assumed): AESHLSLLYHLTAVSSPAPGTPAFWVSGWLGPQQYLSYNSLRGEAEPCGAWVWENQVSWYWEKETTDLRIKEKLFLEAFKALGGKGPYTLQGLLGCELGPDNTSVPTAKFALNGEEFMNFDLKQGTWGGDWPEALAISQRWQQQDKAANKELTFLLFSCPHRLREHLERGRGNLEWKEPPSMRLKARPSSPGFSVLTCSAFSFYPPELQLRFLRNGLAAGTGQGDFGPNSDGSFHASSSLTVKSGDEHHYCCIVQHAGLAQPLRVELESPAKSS
T1 sequence (P61769 21-119 partner): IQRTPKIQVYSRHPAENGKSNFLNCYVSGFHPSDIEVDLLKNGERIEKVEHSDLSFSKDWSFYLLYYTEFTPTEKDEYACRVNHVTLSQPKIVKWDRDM
Description: IgG binding to neonatal Fc receptor (FcRn) is a key mechanism for antibody recycling and a determinant of antibody pharmacokinetics (PK). […] Antibody-A is an IgG1 mAb with L234A, L235A, D265S mutations to reduce FcγR and Clq binding and M252Y, S254T, and T256E mutations to modulate the antibody's clearance profile. The impact of these combined mutation sets was assessed by FcRn-HPLC. Stock antibody solutions were diluted to 1 mg/mL into 20 mM MES, 140 mM NaCl, pH5.5. An Agilent 1290 HPLC equipped with an FcRn Affinity Column Gen2 (Roche, Cat #09430857001) was pre-equilibrated with 20 mM MES, 140 mM NaCl, pH5.5 with a flow rate of 0.2mL/min. 20 μμL antibody injections were made followed by 10 minute column wash with 20 mM MES, 140 mM NaCl, pH5.5. Antibodies were then eluted by pH gradient elution into 20 mM Tris, 140 mM NaCl, pH8.8 over 90 minutes. Chromatograms were blank-subtracted to remove baseline drift.

leptin-LEPR interaction = leptin-LEPR interaction (Homo sapiens, UniProt P48357); assay: ELISA based competition binding assay of antibodies and leptin protein to LEPR
Chain of leptin-LEPR interaction (P48357 with tags, fused parts or gaps): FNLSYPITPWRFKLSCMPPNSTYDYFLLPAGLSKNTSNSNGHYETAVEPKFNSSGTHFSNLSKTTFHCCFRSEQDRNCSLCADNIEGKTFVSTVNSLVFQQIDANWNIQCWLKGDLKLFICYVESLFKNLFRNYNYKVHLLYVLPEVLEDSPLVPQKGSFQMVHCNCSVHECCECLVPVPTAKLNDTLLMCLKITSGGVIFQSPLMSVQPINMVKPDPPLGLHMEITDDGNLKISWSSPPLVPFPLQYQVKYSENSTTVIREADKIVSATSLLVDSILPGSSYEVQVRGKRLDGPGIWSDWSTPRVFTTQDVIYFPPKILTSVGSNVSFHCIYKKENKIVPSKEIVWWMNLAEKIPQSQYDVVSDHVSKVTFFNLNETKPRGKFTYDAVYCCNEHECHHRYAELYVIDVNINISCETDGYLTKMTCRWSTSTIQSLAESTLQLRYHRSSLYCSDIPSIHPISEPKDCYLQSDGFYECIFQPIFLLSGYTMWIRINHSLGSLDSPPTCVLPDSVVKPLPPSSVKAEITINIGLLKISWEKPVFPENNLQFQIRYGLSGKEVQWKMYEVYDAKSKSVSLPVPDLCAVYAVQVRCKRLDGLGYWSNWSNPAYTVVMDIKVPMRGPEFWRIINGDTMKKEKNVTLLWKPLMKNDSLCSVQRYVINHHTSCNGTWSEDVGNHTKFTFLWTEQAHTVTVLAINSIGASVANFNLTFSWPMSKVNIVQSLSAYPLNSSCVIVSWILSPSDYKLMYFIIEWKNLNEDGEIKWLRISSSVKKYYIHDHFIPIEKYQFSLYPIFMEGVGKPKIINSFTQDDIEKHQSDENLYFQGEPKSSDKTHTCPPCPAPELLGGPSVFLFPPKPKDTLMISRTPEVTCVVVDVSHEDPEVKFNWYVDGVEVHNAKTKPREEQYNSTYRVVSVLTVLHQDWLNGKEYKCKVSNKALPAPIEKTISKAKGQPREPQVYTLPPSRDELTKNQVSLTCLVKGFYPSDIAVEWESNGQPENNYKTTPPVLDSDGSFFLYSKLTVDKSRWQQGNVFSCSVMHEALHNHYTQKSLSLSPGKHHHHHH
Description: To test whether the binding of anti-LEPR antibodies to LEPR will compete with leptin-LEPR interaction, an ELISA based competition binding assay was conducted.
Recombinant LEPR extracellular domain fused to hlgG1-Fc (LEPR-Fc) (SEQ ID NO: 30) was diluted in Phosphate Buffered Solution (PBS, Gibco, #20012-027) and applied onto a 96-well Costar assay plate (Corning, #3690) at 5 μg/mL and 50 μL/well. The solution was incubated at 4° C. for 20 hours to allow sufficient protein coating. The plate was then rinsed 3 times with 160 μL/well of 1x wash buffer (R&D, #WA126, 25x), blocked for 1 hour at room temperature with Casein blocking solution (ThermoFisher, #37582), and rinsed by wash buffer 2 times. Serial concentrations of anti-LEPR antibodies (Antibodies A, B, and C) were then diluted in 60 μL of Casein blocking solution and added to each well. Serial concentrations of LEPR-Fc (SEQ ID NO:30) were used as positive control to compete with plate-bound receptor for leptin. Casein blocking solution was used as negative control. The plate was incubated with either anti-LEPR antibodies, positive or negative controls for 90 minutes at room temperature. Next, recombinant human leptin protein (R&D, #398-LP-05M) diluted in 20 μL Casein blocking buffer was added to each plate to a final concentration of 2 nM. The plate was then mixed for 30 seconds with gentle shaking followed by another 90 minutes of incubation at room temperature. The plate was rinsed 3 times with wash buffer. […] Data was obtained by a microplate reader with light absorbance set to 450 nm (OD450). Average OD450 readings in casein coated wells (without LEPR-Fc (SEQ ID NO: 30) coating) were subtracted from all raw OD450 readings to generate the normalized OD450 readings. The average normalized OD450 readings from negative controls (2 nM leptin incubated wells without any competing articles) was set as 100 percent (100%) binding. All normalized OD450 readings were compared to this OD450 reading and presented as percentages of binding. The top and bottom of dose response curve and IC50 was calculated using GraphPad Prism software.

| Substance | Retention Time (FcRn) [min] | Peak Width (FcRn) | Hill Slope (leptin-LEPR interaction; competition dose response curve) | Bottom (%) (leptin-LEPR interaction; percent leptin binding to plate-bound LEPR-Fc, 2 nM leptin, bottom of dose response curve) | Top (%) (leptin-LEPR interaction; percent leptin binding to plate-bound LEPR-Fc, 2 nM leptin, top of dose response curve) |
| --- | --- | --- | --- | --- | --- |
| Briakinumab | 88.9 | 10 min and 10.0 min | – | – | – |
| Ustekinumab | 69.4 | 1.9 min | – | – | – |
| hLEPR-TEV-hIgG1Fc: recombinant LEPR extracellular domain fused to hIgG1-Fc (SEQ ID NO: 30), positive control competing for leptin | – | – | −1.07 | 6.076 | 92.03 |
